Results from patent US20150344570A1 (published 2015).

T1: FcγRIIb (human, UniProt P31994 43-217)
T1 construct: extracellular domain; Soluble extracellular domain with C-terminal His tag, used as analyte; also called FcgRIIb; CD32B; not shown: His tag at the C terminus
T1 sequence (looked up): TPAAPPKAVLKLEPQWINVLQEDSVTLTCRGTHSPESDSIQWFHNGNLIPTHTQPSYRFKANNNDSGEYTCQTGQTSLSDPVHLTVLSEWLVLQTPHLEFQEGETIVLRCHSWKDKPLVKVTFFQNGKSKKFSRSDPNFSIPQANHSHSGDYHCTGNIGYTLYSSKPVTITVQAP

B1: GpH7-A5/GpH7-B3 variant I336_19Q/GpL16-k0 (antibody, human IgG1, kappa)
heavy 1: not shown
heavy 2: not shown
light: DIVMTQSPLSLPVTPGEPASISCQASESLVHSNRNTYLHWYLQKPGQSPQLLIYKVSNRFSGVPDRFSGSGSGTDFTLKISRVEAEDVGVYYCSQNTHVPPTFGQGTKVEIERTVAAPSVFIFPPSDEQLKSGTASVVCLLNNFYPREAKVQWKVDNALQSGNSQESVTEQDSKDSTYSLSSTLTLSKADYEKHKVYACEVTHQGLSSPVTKSFNRGEC
notes: He Ab: mutation in one H chain only; also called He Ab
B2: GpH7-A5/GpH7-B3 variant S298_10E/GpL16-k0 (antibody, human IgG1, kappa)
heavy 1: not shown
heavy 2: not shown
light: DIVMTQSPLSLPVTPGEPASISCQASESLVHSNRNTYLHWYLQKPGQSPQLLIYKVSNRFSGVPDRFSGSGSGTDFTLKISRVEAEDVGVYYCSQNTHVPPTFGQGTKVEIERTVAAPSVFIFPPSDEQLKSGTASVVCLLNNFYPREAKVQWKVDNALQSGNSQESVTEQDSKDSTYSLSSTLTLSKADYEKHKVYACEVTHQGLSSPVTKSFNRGEC
notes: as for B1
B3: GpH7-A5/GpH7-B3 variant S298_14T/GpL16-k0 (antibody, human IgG1, kappa)
heavy 1: not shown
heavy 2: not shown
light: DIVMTQSPLSLPVTPGEPASISCQASESLVHSNRNTYLHWYLQKPGQSPQLLIYKVSNRFSGVPDRFSGSGSGTDFTLKISRVEAEDVGVYYCSQNTHVPPTFGQGTKVEIERTVAAPSVFIFPPSDEQLKSGTASVVCLLNNFYPREAKVQWKVDNALQSGNSQESVTEQDSKDSTYSLSSTLTLSKADYEKHKVYACEVTHQGLSSPVTKSFNRGEC
notes: as for B1
B4: GpH7-A5/GpH7-B3 variant N325_05P/GpL16-k0 (antibody, human IgG1, kappa)
heavy 1: not shown
heavy 2: not shown
light: DIVMTQSPLSLPVTPGEPASISCQASESLVHSNRNTYLHWYLQKPGQSPQLLIYKVSNRFSGVPDRFSGSGSGTDFTLKISRVEAEDVGVYYCSQNTHVPPTFGQGTKVEIERTVAAPSVFIFPPSDEQLKSGTASVVCLLNNFYPREAKVQWKVDNALQSGNSQESVTEQDSKDSTYSLSSTLTLSKADYEKHKVYACEVTHQGLSSPVTKSFNRGEC
notes: as for B1
B5: GpH7-A5/GpH7-B3 variant S298_12R/GpL16-k0 (antibody, human IgG1, kappa)
heavy 1: not shown
heavy 2: not shown
light: DIVMTQSPLSLPVTPGEPASISCQASESLVHSNRNTYLHWYLQKPGQSPQLLIYKVSNRFSGVPDRFSGSGSGTDFTLKISRVEAEDVGVYYCSQNTHVPPTFGQGTKVEIERTVAAPSVFIFPPSDEQLKSGTASVVCLLNNFYPREAKVQWKVDNALQSGNSQESVTEQDSKDSTYSLSSTLTLSKADYEKHKVYACEVTHQGLSSPVTKSFNRGEC
notes: as for B1
B6: GpH7-A5/GpH7-B3 variant S298_15Y/GpL16-k0 (antibody, human IgG1, kappa)
heavy 1: not shown
heavy 2: not shown
light: DIVMTQSPLSLPVTPGEPASISCQASESLVHSNRNTYLHWYLQKPGQSPQLLIYKVSNRFSGVPDRFSGSGSGTDFTLKISRVEAEDVGVYYCSQNTHVPPTFGQGTKVEIERTVAAPSVFIFPPSDEQLKSGTASVVCLLNNFYPREAKVQWKVDNALQSGNSQESVTEQDSKDSTYSLSSTLTLSKADYEKHKVYACEVTHQGLSSPVTKSFNRGEC
notes: as for B1
B7: GpH7-A5/GpH7-B3 variant S298_19Q/GpL16-k0 (antibody, human IgG1, kappa)
heavy 1: not shown
heavy 2: not shown
light: DIVMTQSPLSLPVTPGEPASISCQASESLVHSNRNTYLHWYLQKPGQSPQLLIYKVSNRFSGVPDRFSGSGSGTDFTLKISRVEAEDVGVYYCSQNTHVPPTFGQGTKVEIERTVAAPSVFIFPPSDEQLKSGTASVVCLLNNFYPREAKVQWKVDNALQSGNSQESVTEQDSKDSTYSLSSTLTLSKADYEKHKVYACEVTHQGLSSPVTKSFNRGEC
notes: as for B1
B8: GpH7-A5/GpH7-B3 variant N325_12R/GpL16-k0 (antibody, human IgG1, kappa)
heavy 1: not shown
heavy 2: not shown
light: DIVMTQSPLSLPVTPGEPASISCQASESLVHSNRNTYLHWYLQKPGQSPQLLIYKVSNRFSGVPDRFSGSGSGTDFTLKISRVEAEDVGVYYCSQNTHVPPTFGQGTKVEIERTVAAPSVFIFPPSDEQLKSGTASVVCLLNNFYPREAKVQWKVDNALQSGNSQESVTEQDSKDSTYSLSSTLTLSKADYEKHKVYACEVTHQGLSSPVTKSFNRGEC
notes: as for B1
B9: GpH7-A5/GpH7-B3 variant N325_11K/GpL16-k0 (antibody, human IgG1, kappa)
heavy 1: not shown
heavy 2: not shown
light: DIVMTQSPLSLPVTPGEPASISCQASESLVHSNRNTYLHWYLQKPGQSPQLLIYKVSNRFSGVPDRFSGSGSGTDFTLKISRVEAEDVGVYYCSQNTHVPPTFGQGTKVEIERTVAAPSVFIFPPSDEQLKSGTASVVCLLNNFYPREAKVQWKVDNALQSGNSQESVTEQDSKDSTYSLSSTLTLSKADYEKHKVYACEVTHQGLSSPVTKSFNRGEC
notes: as for B1

Columns and labels:
FcγRIIb = molecular target: T1, FcγRIIb; assay: SPR (Biacore), captured antibody, FcγR as analyte, relative binding
Procedure: (§1) The heterodimerized antibodies He Abs in which one of the H chains was introduced with an alteration were assayed for their binding activities to each activating FcγR and inhibitory FcγR according to the method described in Example 4. […] The activating FcγRs in FIGS. 26, 27, 28, and 29 are FcγRIa, FcγRIIa (R), FcγRIIa (H), and FcγRIIIa, respectively.
(§2) Analysis of interaction between objective antibody and the FcγR was carried out using Biacore T100 (GE Healthcare). HBS-EP+ (GE Healthcare) was used as the running buffer, and the measurement temperature was set to 25° C. Chips produced by immobilizing the antigen peptide by the amine coupling method to a Series S Sencor Chip CM5 (GE Healthcare), or alternatively, chips produced by allowing preliminarily biotinylated antigen peptides to interact with and immobilize onto a Series S Sensor Chip SA (certified) (GE Healthcare) were used. Antibodies of interest were captured onto an antigen peptide-immobilized chip, and allowed to interact to each FcγR diluted with running buffer. To regenerate and repeatedly use the chip, the antibodies captured on the chip were washed off by reacting 10 mM glycine-HCl, pH 1.5.

FcγRIa = molecular target: T2, FcγRIa (human, UniProt P12314 16-292); assay: as above
T2 construct: extracellular domain; Soluble extracellular domain with C-terminal His tag, used as analyte; also called FcgRI; CD64; not shown: His tag at the C terminus
Procedure: as §1, §2

T2 sequence (P12314 16-292): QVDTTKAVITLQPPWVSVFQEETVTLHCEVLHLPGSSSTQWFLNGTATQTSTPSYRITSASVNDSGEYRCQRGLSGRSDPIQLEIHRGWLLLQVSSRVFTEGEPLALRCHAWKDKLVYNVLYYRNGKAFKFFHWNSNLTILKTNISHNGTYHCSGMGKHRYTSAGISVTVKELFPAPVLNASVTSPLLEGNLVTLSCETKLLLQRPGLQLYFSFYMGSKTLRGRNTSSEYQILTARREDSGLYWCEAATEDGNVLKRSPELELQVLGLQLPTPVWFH

Binder	He/Con_2b (FcγRIIb)	He/Con_1a (FcγRIa)
B1	58.2 % of GpH7-A5/GpH7-B3/GpL16-k0	104 % of GpH7-A5/GpH7-B3/GpL16-k0
B2	47.6 % of GpH7-A5/GpH7-B3/GpL16-k0	108 % of GpH7-A5/GpH7-B3/GpL16-k0
B3	77.9 % of GpH7-A5/GpH7-B3/GpL16-k0	107 % of GpH7-A5/GpH7-B3/GpL16-k0
B4	26 % of GpH7-A5/GpH7-B3/GpL16-k0	88.8 % of GpH7-A5/GpH7-B3/GpL16-k0
B5	57.8 % of GpH7-A5/GpH7-B3/GpL16-k0	109 % of GpH7-A5/GpH7-B3/GpL16-k0
B6	61.4 % of GpH7-A5/GpH7-B3/GpL16-k0	107 % of GpH7-A5/GpH7-B3/GpL16-k0
B7	73.3 % of GpH7-A5/GpH7-B3/GpL16-k0	109 % of GpH7-A5/GpH7-B3/GpL16-k0
B8	19.1 % of GpH7-A5/GpH7-B3/GpL16-k0	84.2 % of GpH7-A5/GpH7-B3/GpL16-k0
B9	10.4 % of GpH7-A5/GpH7-B3/GpL16-k0	80.9 % of GpH7-A5/GpH7-B3/GpL16-k0
